# Laboratory results from article PMC8741645 (Structure (London, England : 1993), 2021).
# B1: Saccharomyces cerevisiae vacuolar transient receptor potential yeast 1 (TRPY1) channel, full length, wild type (natural protein, UniProt Q12324 1-675, looked up)
# chain: MVSANGDLHLPISNEQCMPENNGSLGFEAPTPRQILRVTLNLKYLIDKVVPIVYDPNDIVCDHSEILSPKVVKLAYEACGGNPKDKANKRKYQSVIIFSLLKVCEWYSILATMEVHNAKLYETRNLASQQLCKLLIEREETRDLQFLFMQLLLRRYVINENDEDQEPLNALELATDMHCTTVIGSSGFQRCLKWIWRGWIVQNGLDPTTFIKDDSLAEVSLISHFNPVRLKAPVYQNYLQMIFSFLFLGLYTLVVNGKDSERVQSFDLLESIFYVFNTGFILDELTKLYYIGYAHLSFWNLFNDTTYLIITFAMGFRAMSVTPLNAKYSSEDWDKISYRVLSCAAPFVWSRLLLYLESQRFIGIMLVILKHMMKESIVFFFLLFLIMIGFTQGFLGLDSADGKRDITGPILGNLTITVLGLGSFDVFEEFAPPYAAILYYGYYFIVSVILLNILIALYSTAYQKVIDNADDEYMALMSQKTLRYIRAPDEDVYVSPLNLIEVFMTPIFRILPPKRAKDLSYTVMTIVYSPFLLLISVKETREARRIKYNRMKRLNDDANEYDTPWDLTDGYLDDDDGLFSDNRNSGMRATQLKNSRSLKLQRTAEQEDVHFKVPKKWYKNVKKCSPSFEQYDNDDTEDDAGEDKDEVKELTKKVENLTAVITDLLEKLDIKDKKE
# Target: the molecule itself
# Assay: cryo-EM structure
protein,measurement,value
B1,stoichiometry N,4
